{"source": "paper PMC11235169", "about": "(2024)", "binders": {"B1": {"name": "mAJAP17-W183C (peptide)", "chain": "ETEFIACGPTGDEDALE", "modifications": "Limits taken by alignment with the printed human 17-mer … (177-193, W183 at position 7; W183 has the same number in mouse). C-terminal amide is likely, as printed for the TMR-hAJAP17 peptide, but is not stated for this one"}, "B2": {"name": "recombinant sushi domain protein (domain or fragment)", "chain": "CQIIHPPWEGGIRYRGLTRDQVKAINFLPVDYEIEYVCRGEREVVGPKVRKCLANGSWTDMDTPSRCVRICSKSYLTLENGKVFLTGGDLPALDGARVEFRCDPDFHLVGSSRSVCSQGQWSTPKPHCQV", "modifications": "not checked"}}, "key": {"[1]": {"target": "T1, recombinant sushi domain protein", "T1 chain": "B2 chain", "experiment": "FP"}, "[2]": {"target": "recombinant sushi domain protein", "experiment": "fluorescence polarisation; competition: preformed complex of sushi domain protein (40 nM) and TMR-hAJAP17 (25 nM) outcompeted with unlabeled peptides (0.006 to 6.25 μM or 0.03 to 62.5 μM); 20 mM NaPi pH 6.8, 50 mM NaCl, 0.5 mM EDTA, 1% BSA, 25°C; Ki calculated from sigmoidal dose-response fits"}, "[3]": {"target": "recombinant sushi domain protein", "experiment": "ITC; 100 μM hAJAP17 or 300 μM W183C peptide injected into 10 or 30 μM sushi domain protein in the cell; 25°C; 20 mM NaPi pH 7.4; one-site binding model"}, "[4]": {"target": "T1, recombinant sushi domain protein", "experiment": "ITC"}, "TMR-hAJAP17 (human)": {"target": "T2, TMR-hAJAP17 (human)", "T2 chain": "ETEFIAWGPTGDEEALE", "experiment": "fluorescence polarisation; saturation binding: sushi domain protein (0.73 to 1500 nM) added to TMR-hAJAP17 (25 nM); 20 mM NaPi pH 6.8, 50 mM NaCl, 0.5 mM EDTA, 1% BSA, 25°C; one-site binding model"}}}
{"binder": "B1", "values": [{"measurement": "Ki", "setting": "[1]", "value": 44.8, "unit": "µM"}]}
{"binder": "ETEFIAWGPTGDEEALE", "note": "[hAJAP17]", "values": [{"measurement": "Ki", "setting": "[2]", "value": 0.06, "unit": "µM"}, {"measurement": "Kd", "setting": "[3]", "value": 0.047, "unit": "µM"}, {"measurement": "stoichiometry N", "setting": "[3]", "value": 1}]}
{"binder": "ETEFIACGPTGDEEALE", "note": "[hAJAP17-W183C]", "values": [{"measurement": "Kd", "setting": "[4]", "value": 46.7, "unit": "µM"}, {"measurement": "Ki", "setting": "[1]", "value": 49.3, "unit": "µM"}]}
{"binder": "B2", "values": [{"measurement": "Kd", "setting": "TMR-hAJAP17 (human)", "value": 0.0204, "unit": "µM"}]}
